Experimental findings from FireProtDB (doi:10.1126/science.aai7825) are described below.

To fix the notation:
B1: Integration host factor subunit alpha wild type, P0A6X7 (protein)
chain: MALTKAEMSEYLFDKLGLSKRDAKELVELFFEEIRRALENGEQVKLSGFGNFDLRDKNQRPGRNPKTGEDIPITARRVVTFRPGQKLKSRVENASPKDE
B2: Mannosyl-3-phosphoglycerate phosphatase wild type, P76329 (protein)
chain: MFSIQQPLLVFSDLDGTLLDSHSYDWQPAAPWLTRLREANVPVILCSSKTSAEMLYLQKTLGLQGLPLIAENGAVIQLAEQWQEIDGFPRIISGISHGEISLVLNTLREKEHFKFTTFDDVDDATIAEWTGLSRSQAALTQLHEASVTLIWRDSDERMAQFTARLNELGLQFMQGARFWHVLDASAGKDQAANWIIATYQQLSGKRPTTLGLGDGPNDAPLLEVMDYAVIVKGLNREGVHLHDEDPARVWRTQREGPEGWREGLDHFFSAR
B3: Glucokinase wild type, P0A6V8 (protein)
chain: MTKYALVGDVGGTNARLALCDIASGEISQAKTYSGLDYPSLEAVIRVYLEEHKVEVKDGCIAIACPITGDWVAMTNHTWAFSIAEMKKNLGFSHLEIINDFTAVSMAIPMLKKEHLIQFGGAEPVEGKPIAVYGAGTGLGVAHLVHVDKRWVSLPGEGGHVDFAPNSEEEAIILEILRAEIGHVSAERVLSGPGLVNLYRAIVKADNRLPENLKPKDITERALADSCTDCRRALSLFCVIMGRFGGNLALNLGTFGGVFIAGGIVPRFLEFFKASGFRAAFEDKGRFKEYVHDIPVYLIVHDNPGLLGSGAHLRQTLGHIL
B4: Formate-dependent phosphoribosylglycinamide formyltransferase wild type, P33221 (protein)
chain: MTLLGTALRPAATRVMLLGSGELGKEVAIECQRLGVEVIAVDRYADAPAMHVAHRSHVINMLDGDALRRVVELEKPHYIVPEIEAIATDMLIQLEEEGLNVVPCARATKLTMNREGIRRLAAEELQLPTSTYRFADSESLFREAVADIGYPCIVKPVMSSSGKGQTFIRSAEQLAQAWKYAQQGGRAGAGRVIVEGVVKFDFEITLLTVSAVDGVHFCAPVGHRQEDGDYRESWQPQQMSPLALERAQEIARKVVLALGGYGLFGVELFVCGDEVIFSEVSPRPHDTGMVTLISQDLSEFALHVRAFLGLPVGGIRQYGPAASAVILPQLTSQNVTFDNVQNAVGADLQIRLFGKPEIDGSRRLGVALATAESVVDAIERAKHAAGQVKVQG
B5: UDP-glucose 4-epimerase wild type, P09147 (protein)
chain: MRVLVTGGSGYIGSHTCVQLLQNGHDVIILDNLCNSKRSVLPVIERLGGKHPTFVEGDIRNEALMTEILHDHAIDTVIHFAGLKAVGESVQKPLEYYDNNVNGTLRLISAMRAANVKNFIFSSSATVYGDQPKIPYVESFPTGTPQSPYGKSKLMVEQILTDLQKAQPDWSIALLRYFNPVGAHPSGDMGEDPQGIPNNLMPYIAQVAVGRRDSLAIFGNDYPTEDGTGVRDYIHVMDLADGHVVAMEKLANKPGVHIYNLGAGVGNSVLDVVNAFSKACGKPVNYHFAPRREGDLPAYWADASKADRELNWRVTRTLDEMAQDTWHWQSRHPQGYPD
B6: Transcriptional regulatory protein CusR wild type, P0ACZ8 (protein)
chain: MKLLIVEDEKKTGEYLTKGLTEAGFVVDLADNGLNGYHLAMTGDYDLIILDIMLPDVNGWDIVRMLRSANKGMPILLLTALGTIEHRVKGLELGADDYLVKPFAFAELLARVRTLLRRGAAVIIESQFQVADLMVDLVSRKVTRSGTRITLTSKEFTLLEFFLRHQGEVLPRSLIASQVWDMNFDSDTNAIDVAVKRLRGKIDNDFEPKLIQTVRGVGYMLEVPDGQ
B7: Phenylalanine--tRNA ligase alpha subunit wild type, P08312 (protein)
chain: MSHLAELVASAKAAISQASDVAALDNVRVEYLGKKGHLTLQMTTLRELPPEERPAAGAVINEAKEQVQQALNARKAELESAALNARLAAETIDVSLPGRRIENGGLHPVTRTIDRIESFFGELGFTVATGPEIEDDYHNFDALNIPGHHPARADHDTFWFDTTRLLRTQTSGVQIRTMKAQQPPIRIIAPGRVYRNDYDQTHTPMFHQMEGLIVDTNISFTNLKGTLHDFLRNFFEEDLQIRFRPSYFPFTEPSAEVDVMGKNGKWLEVLGCGMVHPNVLRNVGIDPEVYSGFAFGMGMERLTMLRYGVTDLRSFFENDLRFLKQFK
B8: Ribosomal small subunit pseudouridine synthase A wild type, P0AA43 (protein)
chain: MRLDKFIAQQLGVSRAIAGREIRGNRVTVDGEIVRNAAFKLLPEHDVAYDGNPLAQQHGPRYFMLNKPQGYVCSTDDPDHPTVLYFLDEPVAWKLHAAGRLDIDTTGLVLMTDDGQWSHRITSPRHHCEKTYLVTLESPVADDTAEQFAKGVQLHNEKDLTKPAVLEVITPTQVRLTISEGRYHQVKRMFAAVGNHVVELHRERIGGITLDADLAPGEYRPLTEEEIASVV
B9: Probable ATP-dependent transporter SufC wild type, P77499 (protein)
chain: MLSIKDLHVSVEDKAILRGLSLDVHPGEVHAIMGPNGSGKSTLSATLAGREDYEVTGGTVEFKGKDLLALSPEDRAGEGIFMAFQYPVEIPGVSNQFFLQTALNAVRSYRGQETLDRFDFQDLMEEKIALLKMPEDLLTRSVNVGFSGGEKKRNDILQMAVLEPELCILDESDSGLDIDALKVVADGVNSLRDGKRSFIIVTHYQRILDYIKPDYVHVLYQGRIVKSGDFTLVKQLEEQGYGWLTEQQ
B10: dTDP-glucose 4,6-dehydratase 1 wild type, P37759 (protein)
chain: MKILVTGGAGFIGSAVVRHIINNTQDSVVNVDKLTYAGNRESLADVSDSERYVFEHADICDAPAMARIFAQHQPDAVMHLAAESHVDRSITGPAAFIETNIVGTYVLLEAARNYWSALDSDKKNSFRFHHISTDEVYGDLPHPDEVNNTEELPLFTETTAYAPSSPYSASKASSDHLVRAWKRTYGLPTIVTNCSNNYGPYHFPEKLIPLVILNALEGKALPIYGKGDQIRDWLYVEDHARALYTVVTEGKAGETYNIGGHNEKKNIDVVLTICDLLDEIVPKEKSYREQITYVADRPGHDRRYAIDAEKIGRALGWKPQETFESGIRKTVEWYLSNTKWVDNVKSGAYQSWIEQNYEGRQ
B11: dTDP-4-dehydrorhamnose 3,5-epimerase wild type, P37745 (protein)
chain: MNVIRTEIEDVLILEPRVFGDDRGFFYESFNQSAFEHILGYPVSFVQDNHSRSSKNVLRGLHFQRGEYAQDKLVRCTHGAVFDVAVDIRPNSVSFGKWVGVLLSADNKQQLWIPKGFAHGFLVLSDIAEFQYKTTNYYHPESDCGICWNDERIAIDWPQTSGLILSPKDERLFTLDELIRLKLIA
B12: Phosphoribosylglycinamide formyltransferase wild type, P08179 (protein)
chain: MNIVVLISGNGSNLQAIIDACKTNKIKGTVRAVFSNKADAFGLERARQAGIATHTLIASAFDSREAYDRELIHEIDMYAPDVVVLAGFMRILSPAFVSHYAGRLLNIHPSLLPKYPGLHTHRQALENGDEEHGTSVHFVTDELDGGPVILQAKVPVFAGDSEDDITARVQTQEHAIYPLVISWFADGRLKMHENAAWLDGQRLPPQGYAADE
B13: Phosphoribosylaminoimidazole-succinocarboxamide synthase wild type, P0A7D7 (protein)
chain: MQKQAELYRGKAKTVYSTENPDLLVLEFRNDTSAGDGARIEQFDRKGMVNNKFNYFIMSKLAEAGIPTQMERLLSDTECLVKKLDMVPVECVVRNRAAGSLVKRLGIEEGIELNPPLFDLFLKNDAMHDPMVNESYCETFGWVSKENLARMKELTYKANDVLKKLFDDAGLILVDFKLEFGLYKGEVVLGDEFSPDGSRLWDKETLEKMDKDRFRQSLGGLIEAYEAVARRLGVQLD
B14: Protein GrpE wild type, P09372 (protein)
chain: MSSKEQKTPEGQAPEEIIMDQHEEIEAVEPEASAEQVDPRDEKVANLEAQLAEAQTRERDGILRVKAEMENLRRRTELDIEKAHKFALEKFINELLPVIDSLDRALEVADKANPDMSAMVEGIELTLKSMLDVVRKFGVEVIAETNVPLDPNVHQAIAMVESDDVAPGNVLGIMQKGYTLNGRTIRAAMVTVAKAKA
B15: Putative NAD(P)H nitroreductase YdjA wild type, P0ACY1 (protein)
chain: MDALELLINRRSASRLAEPAPTGEQLQNILRAGMRAPDHKSMQPWHFFVIEGEGRERFSAVLEQGAIAAGSDDKAIDKARNAPFRAPLIITVVAKCEENHKVPRWEQEMSAGCAVMAMQMAAVAQGFGGIWRSGALTESPVVREAFGCREQDKIVGFLYLGTPQLKASTSINVPDPTPFVTYF
B16: UTP--glucose-1-phosphate uridylyltransferase wild type, P0AEP3 (protein)
chain: MAAINTKVKKAVIPVAGLGTRMLPATKAIPKEMLPLVDKPLIQYVVNECIAAGITEIVLVTHSSKNSIENHFDTSFELEAMLEKRVKRQLLDEVQSICPPHVTIMQVRQGLAKGLGHAVLCAHPVVGDEPVAVILPDVILDEYESDLSQDNLAEMIRRFDETGHSQIMVEPVADVTAYGVVDCKGVELAPGESVPMVGVVEKPKADVAPSNLAIVGRYVLSADIWPLLAKTPPGAGDEIQLTDAIDMLIEKETVEAYHMKGKSHDCGNKLGYMQAFVEYGIRHNTLGTEFKAWLEEEMGIKK
B17: GTPase ObgE/CgtA wild type, P42641 (protein)
chain: MKFVDEASILVVAGDGGNGCVSFRREKYIPKGGPDGGDGGDGGDVWMEADENLNTLIDYRFEKSFRAERGQNGASRDCTGKRGKDVTIKVPVGTRVIDQGTGETMGDMTKHGQRLLVAKGGWHGLGNTRFKSSVNRTPRQKTNGTPGDKRELLLELMLLADVGMLGMPNAGKSTFIRAVSAAKPKVADYPFTTLVPSLGVVRMDNEKSFVVADIPGLIEGAAEGAGLGIRFLKHLERCRVLLHLIDIDPIDGTDPVENARIIISELEKYSQDLATKPRWLVFNKIDLLDKVEAEEKAKAIAEALGWEDKYYLISAASGLGVKDLCWDVMTFIIENPVVQAEEAKQPEKVEFMWDDYHRQQLEEIAEEDDEDWDDDWDEDDEEGVEFIYKR

One may read the Tm as the temperature at the midpoint of the melting transition.

The conditions of this data set: Escherichia coli (strain K12); pH 7.5; Thermal; Intensity; HEPES 20mM; transition: 2; whole UniProt chain shown.
With B1, the Tm was determined as 44.6 °C. As for B2, the Tm turned out to be 43.9 °C.

Take B3: the Tm turned out to be 44.4 °C. As for B4, the Tm was 43.4 °C.

Consider B5, for which the midpoint of thermal melting (Tm) came out at 45 °C. Next, B6: 43.7 °C. As to B7, the Tm amounted to 43.3 °C.

As to B8, the midpoint of thermal melting (Tm) is 45 °C. For B9, the Tm came out at 44.9 °C. The same measure for B10: 44.3 °C; for B11: 44.2 °C; for B12: 43.5 °C. The same measure for B13: 43.1 °C; for B14: 44 °C.

As to B15, the Tm was 45.3 °C. The same measure for B16: 45.6 °C; for B17: 44.5 °C.
